Measurements as given in patent publication US20160122426A1 (DONG A SOCIO, published 2016).

How the values were obtained:
mouse VEGF = molecular target: T1, mouse VEGF (mouse, UniProt Q00731-2 27-190); test: ELISA, 0.2 µg/ml VEGF coated, scFv or IgG serially diluted
T1 construct: Bought recombinant protein; also called mVEGF-A; mouse VEGF-A
T1 sequence (looked up): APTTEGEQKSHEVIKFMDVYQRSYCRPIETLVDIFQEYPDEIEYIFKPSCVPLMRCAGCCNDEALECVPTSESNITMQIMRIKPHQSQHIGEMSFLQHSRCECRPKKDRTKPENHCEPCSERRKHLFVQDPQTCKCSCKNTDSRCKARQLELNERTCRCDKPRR
Description: ELISA plates were coated with 0.2 μg/ml of human VEGF and mouse VEGF (R&D systems, USA) respectively, and the purified proteins obtained in Example 5 in the form of scFv expressed by HB2151 or IgG expressed by 293F cells were incubated at serially diluted concentrations.

human VEGF = molecular target: T2, human VEGF (human, UniProt P15692-4 27-191); test: ELISA, human VEGF coated, anti-human Fc-HRP, absorbance 450 nm [a]
T2 construct: Bought recombinant protein; also called hVEGF; human VEGF-A
Description: 1.5 ng of human VEGF diluted in 150 μL of buffer solution was placed in 96-well immune plate (Nunc, USA), and adsorbed at 4° C. overnight, followed by washing 3 times with a buffer solution containing 0.1% Tween 20. Then, they were reacted with a buffer solution including 1% bovine serum albumin (Sigma, USA) for 1 hr at room temperature, and washed 3 times. Then each well was treated with 150 μL of serially diluted antibody (1 ng/mL, 10 ng/mL, 30 ng/mL, 100 ng/mL, 1000 ng/mL and 3000 ng/mL) They were allowed to react for 1 hr at room temperature so that antigens may bind to antibodies, followed by washing 3 times with a buffer solution.
Each well was treated at 150 μL per well with anti-human immunoglobulin Fc-HRP antibody (AbSerotec, USA) diluted 1:20000 and allowed to react for 1 hr at room temperature. After the reaction was completed, washing was performed 3 times with a buffer solution, followed by addition of 150 μL of TMB (Sigma, USA) and color development for 10 min. The reaction was terminated with 1N sulfuric acid solution, and absorbance was measured at 450 nm using a spectrophotometer (Molecular Device, USA).

B1: clone F (antibody, V domains shown)
VH: AVTLHESGGGLQTPGGALSLVCKASGFTFSSHGMQWVRQAPGKGLEYVAGISSDGSWTGYGAAVKGRATISRDNGQSTVRLQLNNLRAEDTATYYCARDFSTSYGADSIDAWGHGTEVIVSS
VL: LTQPSSVSANPGETVKITCSGGSNSAYGYGWYQQKSPGSAPVTLIYWDDKRPSDIPSRFSGSASGSTATLTITGVRAEDEAVYFCGAWEYSSDVGIFGAGTTLTVL
notes: Clone from an immunized chicken scFv phage library; also called mother clone F; F clone
- binding result (mouse VEGF): binds
- binding result (human VEGF): binds
